What was measured:
Assay in all cases: BLI
C12b-AM1 monobody = target: C12b-AM1 monobody
C4-AM2 monobody = target: C4-AM2 monobody
C4-AM1 monobody = target: C4-AM1 monobody
C12b-AM2 monobody = target: C12b-AM2 monobody
C6b-AM2 monobody = target: C6b-AM2 monobody

Substance: SARS-CoV-2 S protein receptor-binding domain, wild type (B.1.1) (from UniProt P0DTC2) (domain or fragment)
- Kd (C12b-AM1 monobody): 1 nM
- Kd (C4-AM2 monobody): < 0.01 nM
- Kd (C4-AM1 monobody): 0.11 nM
- Kd (C12b-AM2 monobody): < 0.01 nM
- Kd (C6b-AM2 monobody): 0.36 nM
